From patent US20250011433A1 (GLIKNIK, published 2025)

T1: FcγRIIb (UniProt P31994 46-217, limits assumed)
T1 sequence (looked up): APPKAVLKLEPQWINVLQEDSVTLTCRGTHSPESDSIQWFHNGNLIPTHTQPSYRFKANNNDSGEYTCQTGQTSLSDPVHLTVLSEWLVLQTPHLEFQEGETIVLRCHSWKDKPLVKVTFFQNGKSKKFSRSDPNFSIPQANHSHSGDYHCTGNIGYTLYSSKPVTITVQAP


What was measured:
FcγRI = molecular target: T2, FcγRI (UniProt P12314 16-288); test: BLI (Octet)
T2 construct: also called CD64
Protocol: (§1) Binding of complement-preferential stradomers or parent stradomer G045c to FcγRI, FcγRIIb, FcγRIIIa, FcγRIIa, or FcRn was assessed. RU values of dissociation were measured by biolayer interferometry using a ForteBio Octet instrument. His-tagged receptor proteins were bound to the sensor tip in 1× kinetic analysis buffer from ForteBio after which the on rate of the receptor/protein was measured by transferring the sensor tip to a 1× kinetics buffer containing the purified stradomer of choice. Off rate was measured by transferring the sensor tip to a 1× kinetics buffer, and RU value was calculated from the measured maximum binding using the ForteBio software. Biolayer interferometry detects the binding between a ligand immobilized on the biosensor tip surface and an analyte in solution. When binding occurs it produces an increase in optical thickness at the biosensor tip, which results in a wavelength shift (detected as a response unit of “RU”). The maximum binding level (RU max) is the maximum possible amount of sample binding at equilibrium that saturates the amount of ligand on the sensor surface. The RU 300 is the residual sample binding after 300 seconds of dissociation and is useful to characterize the rate of dissociation of the test article from the test ligand.
(§2) For each stradomer in Tables 5-9, the level of canonical FcγR binding, complement C1q binding, and CDC inhibition were determined according to the methods described in Example 1.

FcγRIIb = molecular target: T1, FcγRIIb; test: BLI (Octet)
Protocol: as §1, §2

C1q = C1q (UniProt P02745 23-245; P02746 28-253; P02747 29-245); test: cell-based or functional assay
Chain of C1q (P02745 23-245 limits assumed, chain 1 of 3): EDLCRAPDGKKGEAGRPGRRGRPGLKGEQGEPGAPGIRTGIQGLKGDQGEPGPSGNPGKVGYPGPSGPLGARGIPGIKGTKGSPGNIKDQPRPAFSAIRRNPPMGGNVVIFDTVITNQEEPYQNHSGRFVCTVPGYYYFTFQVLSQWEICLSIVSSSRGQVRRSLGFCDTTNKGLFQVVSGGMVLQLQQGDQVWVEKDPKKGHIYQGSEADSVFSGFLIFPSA
Chain of C1q (P02746 28-253 limits assumed, chain 2 of 3): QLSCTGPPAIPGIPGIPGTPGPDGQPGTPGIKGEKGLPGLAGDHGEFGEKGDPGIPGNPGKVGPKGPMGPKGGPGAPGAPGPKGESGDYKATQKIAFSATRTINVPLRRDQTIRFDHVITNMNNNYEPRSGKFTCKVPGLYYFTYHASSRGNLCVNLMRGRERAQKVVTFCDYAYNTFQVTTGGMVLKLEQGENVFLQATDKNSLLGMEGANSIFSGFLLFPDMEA
Chain of C1q (P02747 29-245 limits assumed, chain 3 of 3): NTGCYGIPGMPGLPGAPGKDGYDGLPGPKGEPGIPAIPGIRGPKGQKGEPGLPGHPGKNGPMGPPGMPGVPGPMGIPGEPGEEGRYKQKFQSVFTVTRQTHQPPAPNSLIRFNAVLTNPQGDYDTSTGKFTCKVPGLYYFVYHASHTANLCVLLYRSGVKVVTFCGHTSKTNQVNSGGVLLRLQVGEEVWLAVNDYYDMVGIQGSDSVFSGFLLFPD

T2 sequence (P12314 16-288 limits assumed): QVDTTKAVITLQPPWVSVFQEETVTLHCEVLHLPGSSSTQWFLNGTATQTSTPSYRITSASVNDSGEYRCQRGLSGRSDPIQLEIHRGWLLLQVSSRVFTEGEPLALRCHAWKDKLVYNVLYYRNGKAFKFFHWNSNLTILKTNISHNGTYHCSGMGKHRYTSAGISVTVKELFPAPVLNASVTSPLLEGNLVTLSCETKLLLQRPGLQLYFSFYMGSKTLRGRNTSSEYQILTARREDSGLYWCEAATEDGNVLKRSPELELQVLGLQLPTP

Binder	binding result (FcγRI)	binding result (FcγRIIb)	CDC Inhibition (EC50, µg/mL) (C1q) [µg/mL]
G1088 (Fc fusion, G045c background, E233P/G236Q/H268F/S324T; leader 1-20 cleaved) EPKSCDKTHTCPPCPAPPLLQGPSVFLFPPKPKDTLMISRTPEVTCVVVDVSFEDPEVKFNWYVDGVEVHNAKTKPREEQYNSTYRVVSVLTVLHQDWLNGKEYKCKVTNKALPAPIEKTISKAKGQPREPQVYTLPPSRDELTKNQVSLTCLVKGFYPSDIAVEWESNGQPENNYKTTPPVLDSDGSFFLYSKLTVDKSRWQQGNVFSCSVMHEALHNHYTQKSLSLSPGKERKCCVECPPCP	binds	binds	5
G1111 (Fc fusion, G045c background, E233P/G236D/S267Q/H268F/S324T; leader 1-20 cleaved) EPKSCDKTHTCPPCPAPPLLDGPSVFLFPPKPKDTLMISRTPEVTCVVVDVQFEDPEVKFNWYVDGVEVHNAKTKPREEQYNSTYRVVSVLTVLHQDWLNGKEYKCKVTNKALPAPIEKTISKAKGQPREPQVYTLPPSRDELTKNQVSLTCLVKGFYPSDIAVEWESNGQPENNYKTTPPVLDSDGSFFLYSKLTVDKSRWQQGNVFSCSVMHEALHNHYTQKSLSLSPGKERKCCVECPPCP	binds	binds	5
G1102 (Fc fusion, G045c background, E233P/S267Q/H268F/S324T; leader 1-20 cleaved) EPKSCDKTHTCPPCPAPPLLGGPSVFLFPPKPKDTLMISRTPEVTCVVVDVQFEDPEVKFNWYVDGVEVHNAKTKPREEQYNSTYRVVSVLTVLHQDWLNGKEYKCKVTNKALPAPIEKTISKAKGQPREPQVYTLPPSRDELTKNQVSLTCLVKGFYPSDIAVEWESNGQPENNYKTTPPVLDSDGSFFLYSKLTVDKSRWQQGNVFSCSVMHEALHNHYTQKSLSLSPGKERKCCVECPPCP	binds	binds	7.5
G1095 (Fc fusion, G045c background, S267N/H268F/S324T/T299A; leader 1-20 cleaved) EPKSCDKTHTCPPCPAPELLGGPSVFLFPPKPKDTLMISRTPEVTCVVVDVNFEDPEVKFNWYVDGVEVHNAKTKPREEQYNSAYRVVSVLTVLHQDWLNGKEYKCKVTNKALPAPIEKTISKAKGQPREPQVYTLPPSRDELTKNQVSLTCLVKGFYPSDIAVEWESNGQPENNYKTTPPVLDSDGSFFLYSKLTVDKSRWQQGNVFSCSVMHEALHNHYTQKSLSLSPGKERKCCVECPPCP	binds	binds	15
G1105 (Fc fusion, G045c background, E233P/G236N/H268F/S324T; leader 1-20 cleaved) EPKSCDKTHTCPPCPAPPLLNGPSVFLFPPKPKDTLMISRTPEVTCVVVDVSFEDPEVKFNWYVDGVEVHNAKTKPREEQYNSTYRVVSVLTVLHQDWLNGKEYKCKVTNKALPAPIEKTISKAKGQPREPQVYTLPPSRDELTKNQVSLTCLVKGFYPSDIAVEWESNGQPENNYKTTPPVLDSDGSFFLYSKLTVDKSRWQQGNVFSCSVMHEALHNHYTQKSLSLSPGKERKCCVECPPCP	binds	binds	5
G1108 (Fc fusion, G045c background, E233P/S267N/H268F/S324T; leader 1-20 cleaved) EPKSCDKTHTCPPCPAPPLLGGPSVFLFPPKPKDTLMISRTPEVTCVVVDVNFEDPEVKFNWYVDGVEVHNAKTKPREEQYNSTYRVVSVLTVLHQDWLNGKEYKCKVTNKALPAPIEKTISKAKGQPREPQVYTLPPSRDELTKNQVSLTCLVKGFYPSDIAVEWESNGQPENNYKTTPPVLDSDGSFFLYSKLTVDKSRWQQGNVFSCSVMHEALHNHYTQKSLSLSPGKERKCCVECPPCP	binds	binds	5
G1094 (Fc fusion, G045c background, S267Q/H268F/S324T/T299A; leader 1-20 cleaved) EPKSCDKTHTCPPCPAPELLGGPSVFLFPPKPKDTLMISRTPEVTCVVVDVQFEDPEVKFNWYVDGVEVHNAKTKPREEQYNSAYRVVSVLTVLHQDWLNGKEYKCKVTNKALPAPIEKTISKAKGQPREPQVYTLPPSRDELTKNQVSLTCLVKGFYPSDIAVEWESNGQPENNYKTTPPVLDSDGSFFLYSKLTVDKSRWQQGNVFSCSVMHEALHNHYTQKSLSLSPGKERKCCVECPPCP	binds	binds	12.5
G1115 (Fc fusion, G045c background, E233P/G236E/S267R/H268F/S324T; leader 1-20 cleaved) EPKSCDKTHTCPPCPAPPLLEGPSVFLFPPKPKDTLMISRTPEVTCVVVDVRFEDPEVKFNWYVDGVEVHNAKTKPREEQYNSTYRVVSVLTVLHQDWLNGKEYKCKVTNKALPAPIEKTISKAKGQPREPQVYTLPPSRDELTKNQVSLTCLVKGFYPSDIAVEWESNGQPENNYKTTPPVLDSDGSFFLYSKLTVDKSRWQQGNVFSCSVMHEALHNHYTQKSLSLSPGKERKCCVECPPCP	binds	–	50
G1114 (Fc fusion, G045c background, E233P/G236Q/S267D/H268F/S324T; leader 1-20 cleaved) EPKSCDKTHTCPPCPAPPLLQGPSVFLFPPKPKDTLMISRTPEVTCVVVDVDFEDPEVKFNWYVDGVEVHNAKTKPREEQYNSTYRVVSVLTVLHQDWLNGKEYKCKVTNKALPAPIEKTISKAKGQPREPQVYTLPPSRDELTKNQVSLTCLVKGFYPSDIAVEWESNGQPENNYKTTPPVLDSDGSFFLYSKLTVDKSRWQQGNVFSCSVMHEALHNHYTQKSLSLSPGKERKCCVECPPCP	binds	binds	5
G1117 (Fc fusion, G045c background, E233P/G236D/S267D/H268F/S324T; leader 1-20 cleaved) EPKSCDKTHTCPPCPAPPLLDGPSVFLFPPKPKDTLMISRTPEVTCVVVDVDFEDPEVKFNWYVDGVEVHNAKTKPREEQYNSTYRVVSVLTVLHQDWLNGKEYKCKVTNKALPAPIEKTISKAKGQPREPQVYTLPPSRDELTKNQVSLTCLVKGFYPSDIAVEWESNGQPENNYKTTPPVLDSDGSFFLYSKLTVDKSRWQQGNVFSCSVMHEALHNHYTQKSLSLSPGKERKCCVECPPCP	binds	binds	5
G1110 (Fc fusion, G045c background, E233P/G236D/S267R/H268F/S324T; leader 1-20 cleaved) EPKSCDKTHTCPPCPAPPLLDGPSVFLFPPKPKDTLMISRTPEVTCVVVDVRFEDPEVKFNWYVDGVEVHNAKTKPREEQYNSTYRVVSVLTVLHQDWLNGKEYKCKVTNKALPAPIEKTISKAKGQPREPQVYTLPPSRDELTKNQVSLTCLVKGFYPSDIAVEWESNGQPENNYKTTPPVLDSDGSFFLYSKLTVDKSRWQQGNVFSCSVMHEALHNHYTQKSLSLSPGKERKCCVECPPCP	binds	–	25

Next, values leading:

binding result (FcγRI)	binding result (FcγRIIb)	CDC Inhibition (EC50, µg/mL) (C1q) [µg/mL]	Binder
binds	–	15	G1131 (Fc fusion, G045c background, E233P/G236R/S267N/H268F/S324T; leader 1-20 cleaved) EPKSCDKTHTCPPCPAPPLLRGPSVFLFPPKPKDTLMISRTPEVTCVVVDVNFEDPEVKFNWYVDGVEVHNAKTKPREEQYNSTYRVVSVLTVLHQDWLNGKEYKCKVTNKALPAPIEKTISKAKGQPREPQVYTLPPSRDELTKNQVSLTCLVKGFYPSDIAVEWESNGQPENNYKTTPPVLDSDGSFFLYSKLTVDKSRWQQGNVFSCSVMHEALHNHYTQKSLSLSPGKERKCCVECPPCP
binds	binds	12.5	G1107 (Fc fusion, G045c background, S267H/H268F/S324T/T299A; leader 1-20 cleaved) EPKSCDKTHTCPPCPAPELLGGPSVFLFPPKPKDTLMISRTPEVTCVVVDVHFEDPEVKFNWYVDGVEVHNAKTKPREEQYNSAYRVVSVLTVLHQDWLNGKEYKCKVTNKALPAPIEKTISKAKGQPREPQVYTLPPSRDELTKNQVSLTCLVKGFYPSDIAVEWESNGQPENNYKTTPPVLDSDGSFFLYSKLTVDKSRWQQGNVFSCSVMHEALHNHYTQKSLSLSPGKERKCCVECPPCP
binds	binds	5	G1101 (Fc fusion, G045c background, E233P/S267D/H268F/S324T; leader 1-20 cleaved) EPKSCDKTHTCPPCPAPPLLGGPSVFLFPPKPKDTLMISRTPEVTCVVVDVDFEDPEVKFNWYVDGVEVHNAKTKPREEQYNSTYRVVSVLTVLHQDWLNGKEYKCKVTNKALPAPIEKTISKAKGQPREPQVYTLPPSRDELTKNQVSLTCLVKGFYPSDIAVEWESNGQPENNYKTTPPVLDSDGSFFLYSKLTVDKSRWQQGNVFSCSVMHEALHNHYTQKSLSLSPGKERKCCVECPPCP
binds	binds	5	G1103 (Fc fusion, G045c background, E233P/G236E/H268F/S324T; leader 1-20 cleaved) EPKSCDKTHTCPPCPAPPLLEGPSVFLFPPKPKDTLMISRTPEVTCVVVDVSFEDPEVKFNWYVDGVEVHNAKTKPREEQYNSTYRVVSVLTVLHQDWLNGKEYKCKVTNKALPAPIEKTISKAKGQPREPQVYTLPPSRDELTKNQVSLTCLVKGFYPSDIAVEWESNGQPENNYKTTPPVLDSDGSFFLYSKLTVDKSRWQQGNVFSCSVMHEALHNHYTQKSLSLSPGKERKCCVECPPCP
binds	binds	5	G1104 (Fc fusion, G045c background, E233P/G236D/H268F/S324T; leader 1-20 cleaved) EPKSCDKTHTCPPCPAPPLLDGPSVFLFPPKPKDTLMISRTPEVTCVVVDVSFEDPEVKFNWYVDGVEVHNAKTKPREEQYNSTYRVVSVLTVLHQDWLNGKEYKCKVTNKALPAPIEKTISKAKGQPREPQVYTLPPSRDELTKNQVSLTCLVKGFYPSDIAVEWESNGQPENNYKTTPPVLDSDGSFFLYSKLTVDKSRWQQGNVFSCSVMHEALHNHYTQKSLSLSPGKERKCCVECPPCP
